Patent publication US20140087995A1 (published 2014)
Numbered stars: 1 amine (or outer) side, 2 acyl side, 3 side chain; on linkers, the order of the positions; unused ones are H or OH. Bridge positions count the residues as written; N and C are the ends. Square brackets hold non-standard residues; d marks the D form. Side chains are listed from the residue outwards. Ends that are not written are not given here. * marks the point of attachment. C20 diacid = O=C(O)CCCCCCCCCCCCCCCCCCC(=O)*; γGlu = O=C(O)[C@H](CCC(=O)[*:2])N[*:1]

T1: human calcitonin receptor (human, UniProt P30988 25-474)
T1 construct: whole, on cells; Membranes of BHK cells stably transfected with the human calcitonin receptor (Assay VII); also called hCTR; hCT
T1 sequence (looked up): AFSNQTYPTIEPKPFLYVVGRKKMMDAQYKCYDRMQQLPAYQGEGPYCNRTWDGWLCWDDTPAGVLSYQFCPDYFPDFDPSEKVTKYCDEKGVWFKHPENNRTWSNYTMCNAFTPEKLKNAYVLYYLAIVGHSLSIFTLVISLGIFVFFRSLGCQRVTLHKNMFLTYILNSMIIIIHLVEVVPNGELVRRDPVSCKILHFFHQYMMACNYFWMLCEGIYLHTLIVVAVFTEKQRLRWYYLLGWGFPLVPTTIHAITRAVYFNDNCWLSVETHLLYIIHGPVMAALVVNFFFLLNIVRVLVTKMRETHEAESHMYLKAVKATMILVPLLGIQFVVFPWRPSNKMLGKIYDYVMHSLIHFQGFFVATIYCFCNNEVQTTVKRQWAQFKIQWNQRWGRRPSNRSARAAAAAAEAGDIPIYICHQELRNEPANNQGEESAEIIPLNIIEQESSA

B1: N^-1-[(4S)-4-carboxy-4-(19-carboxynonadecanoylamino)butanoyl]-Gly[Arg1,His14,Arg17,Pro21,Pro27,His34]-h-amylin (peptide)
peptide: {C20 diacid-γGlu}-GRCNTATCATQRLAHFLRHSSPNFGAIPSSTNVGHNTY-NH2
modifications: disulfide 3-8
SMILES: CC[C@H](C)[C@H](NC(=O)[C@H](C)NC(=O)CNC(=O)[C@H](Cc1ccccc1)NC(=O)[C@H](CC(N)=O)NC(=O)[C@@H]1CCCN1C(=O)[C@H](CO)NC(=O)[C@H](CO)NC(=O)[C@H](Cc1c[nH]cn1)NC(=O)[C@H](CCCNC(=N)N)NC(=O)[C@H](CC(C)C)NC(=O)[C@H](Cc1ccccc1)NC(=O)[C@H](Cc1c[nH]cn1)NC(=O)[C@H](C)NC(=O)[C@H](CC(C)C)NC(=O)[C@H](CCCNC(=N)N)NC(=O)[C@H](CCC(N)=O)NC(=O)[C@@H](NC(=O)[C@H](C)NC(=O)[C@@H]1CSSC[C@H](NC(=O)[C@H](CCCNC(=N)N)NC(=O)CNC(=O)CC[C@H](NC(=O)CCCCCCCCCCCCCCCCCCC(=O)O)C(=O)O)C(=O)N[C@@H](CC(N)=O)C(=O)N[C@@H]([C@@H](C)O)C(=O)N[C@@H](C)C(=O)N[C@@H]([C@@H](C)O)C(=O)N1)[C@@H](C)O)C(=O)N1CCC[C@H]1C(=O)N[C@@H](CO)C(=O)N[C@@H](CO)C(=O)N[C@H](C(=O)N[C@@H](CC(N)=O)C(=O)N[C@H](C(=O)NCC(=O)N[C@@H](Cc1c[nH]cn1)C(=O)N[C@@H](CC(N)=O)C(=O)N[C@H](C(=O)N[C@@H](Cc1ccc(O)cc1)C(N)=O)[C@@H](C)O)C(C)C)[C@@H](C)O
notes: also called compound 100
B2: N^-1-[(4S)-4-carboxy-4-(19-carboxynonadecanoylamino)butanoyl]-Gly[Arg1,His14,Arg17,Pro21,Pro27,Pro34]-h-amylin (peptide)
peptide: {C20 diacid-γGlu}-GRCNTATCATQRLAHFLRHSSPNFGAIPSSTNVGPNTY-NH2
modifications: disulfide 3-8
SMILES: CC[C@H](C)[C@H](NC(=O)[C@H](C)NC(=O)CNC(=O)[C@H](Cc1ccccc1)NC(=O)[C@H](CC(N)=O)NC(=O)[C@@H]1CCCN1C(=O)[C@H](CO)NC(=O)[C@H](CO)NC(=O)[C@H](Cc1c[nH]cn1)NC(=O)[C@H](CCCNC(=N)N)NC(=O)[C@H](CC(C)C)NC(=O)[C@H](Cc1ccccc1)NC(=O)[C@H](Cc1c[nH]cn1)NC(=O)[C@H](C)NC(=O)[C@H](CC(C)C)NC(=O)[C@H](CCCNC(=N)N)NC(=O)[C@H](CCC(N)=O)NC(=O)[C@@H](NC(=O)[C@H](C)NC(=O)[C@@H]1CSSC[C@H](NC(=O)[C@H](CCCNC(=N)N)NC(=O)CNC(=O)CC[C@H](NC(=O)CCCCCCCCCCCCCCCCCCC(=O)O)C(=O)O)C(=O)N[C@@H](CC(N)=O)C(=O)N[C@@H]([C@@H](C)O)C(=O)N[C@@H](C)C(=O)N[C@@H]([C@@H](C)O)C(=O)N1)[C@@H](C)O)C(=O)N1CCC[C@H]1C(=O)N[C@@H](CO)C(=O)N[C@@H](CO)C(=O)N[C@H](C(=O)N[C@@H](CC(N)=O)C(=O)N[C@H](C(=O)NCC(=O)N1CCC[C@H]1C(=O)N[C@@H](CC(N)=O)C(=O)N[C@H](C(=O)N[C@@H](Cc1ccc(O)cc1)C(N)=O)[C@@H](C)O)C(C)C)[C@@H](C)O
B3: N^-1-[(4S)-4-carboxy-4-(19-carboxynonadecanoylamino)butanoyl]-Gly[Arg1,Ala14,Arg17,Pro21,Pro27,His34]-h-amylin (peptide)
peptide: {C20 diacid-γGlu}-GRCNTATCATQRLAAFLRHSSPNFGAIPSSTNVGHNTY-NH2
modifications: disulfide 3-8
SMILES: CC[C@H](C)[C@H](NC(=O)[C@H](C)NC(=O)CNC(=O)[C@H](Cc1ccccc1)NC(=O)[C@H](CC(N)=O)NC(=O)[C@@H]1CCCN1C(=O)[C@H](CO)NC(=O)[C@H](CO)NC(=O)[C@H](Cc1c[nH]cn1)NC(=O)[C@H](CCCNC(=N)N)NC(=O)[C@H](CC(C)C)NC(=O)[C@H](Cc1ccccc1)NC(=O)[C@H](C)NC(=O)[C@H](C)NC(=O)[C@H](CC(C)C)NC(=O)[C@H](CCCNC(=N)N)NC(=O)[C@H](CCC(N)=O)NC(=O)[C@@H](NC(=O)[C@H](C)NC(=O)[C@@H]1CSSC[C@H](NC(=O)[C@H](CCCNC(=N)N)NC(=O)CNC(=O)CC[C@H](NC(=O)CCCCCCCCCCCCCCCCCCC(=O)O)C(=O)O)C(=O)N[C@@H](CC(N)=O)C(=O)N[C@@H]([C@@H](C)O)C(=O)N[C@@H](C)C(=O)N[C@@H]([C@@H](C)O)C(=O)N1)[C@@H](C)O)C(=O)N1CCC[C@H]1C(=O)N[C@@H](CO)C(=O)N[C@@H](CO)C(=O)N[C@H](C(=O)N[C@@H](CC(N)=O)C(=O)N[C@H](C(=O)NCC(=O)N[C@@H](Cc1c[nH]cn1)C(=O)N[C@@H](CC(N)=O)C(=O)N[C@H](C(=O)N[C@@H](Cc1ccc(O)cc1)C(N)=O)[C@@H](C)O)C(C)C)[C@@H](C)O
B4: N^ε1-[(4S)-4-carboxy-4-[[(4S)-4-carboxy-4-(19-carboxynonadecanoylamino)butanoyl]amino]butanoyl]-[D-Asp14,Arg17,Pro21,Pro27,Arg35]-h-amylin (peptide)
peptide: K([γGlu-γGlu-C20 diacid])CNTATCATQRLA[dD]FLRHSSPNFGAIPSSTNVGSRTY-NH2
modifications: disulfide 2-7; N-terminus assumed
SMILES: CC[C@H](C)[C@H](NC(=O)[C@H](C)NC(=O)CNC(=O)[C@H](Cc1ccccc1)NC(=O)[C@H](CC(N)=O)NC(=O)[C@@H]1CCCN1C(=O)[C@H](CO)NC(=O)[C@H](CO)NC(=O)[C@H](Cc1c[nH]cn1)NC(=O)[C@H](CCCNC(=N)N)NC(=O)[C@H](CC(C)C)NC(=O)[C@H](Cc1ccccc1)NC(=O)[C@@H](CC(=O)O)NC(=O)[C@H](C)NC(=O)[C@H](CC(C)C)NC(=O)[C@H](CCCNC(=N)N)NC(=O)[C@H](CCC(N)=O)NC(=O)[C@@H](NC(=O)[C@H](C)NC(=O)[C@@H]1CSSC[C@H](NC(=O)[C@@H](N)CCCCNC(=O)CC[C@H](NC(=O)CC[C@H](NC(=O)CCCCCCCCCCCCCCCCCCC(=O)O)C(=O)O)C(=O)O)C(=O)N[C@@H](CC(N)=O)C(=O)N[C@@H]([C@@H](C)O)C(=O)N[C@@H](C)C(=O)N[C@@H]([C@@H](C)O)C(=O)N1)[C@@H](C)O)C(=O)N1CCC[C@H]1C(=O)N[C@@H](CO)C(=O)N[C@@H](CO)C(=O)N[C@H](C(=O)N[C@@H](CC(N)=O)C(=O)N[C@H](C(=O)NCC(=O)N[C@@H](CO)C(=O)N[C@@H](CCCNC(=N)N)C(=O)N[C@H](C(=O)N[C@@H](Cc1ccc(O)cc1)C(N)=O)[C@@H](C)O)C(C)C)[C@@H](C)O
notes: Residue 14 is D-aspartic acid (printed 14d)

Each binder was assayed against T1, human calcitonin receptor (assay: ratio of IC50 at hCTR over IC50 at hAmylin-R (SPA competition assays)).
Procedure: The resulting pellet was resuspended, homogenized and centrifuged (20.000 rpm, 15 min) in a buffer containing 20 mM Na-HEPES and 0.1 mM EDTA (pH 7.4, buffer 2). The resulting pellet was resuspended in buffer 2 and protein concentration was measured (BCA protein Assay, Pierce). The homogenate was kept cold during the whole procedure. The membranes were kept at −80° C. until use. The assay was performed in a 384 well Optiplate (PerkinElmer) in a total volume of 40 ul. Membranes were mixed with SPA beads. Final concentration of membranes 35 ng/μL final and SPA beads was 0.05 mg/well. Test-compounds were dissolved in DMSO and further diluted in assay buffer (50 mM Hepes, pH 7.4, 1 mM CaCl2, 5 mM MgCl₂, 0.1% OA and 0.02% Tween20). […] The final mixture was incubated with shaking at 400 rpm for 120 min at 25° C. prior to centrifugation (1500 rpm, 10 min). Samples were analyzed on TopCounter™ (Packard). The IC₅₀ was calculated using (one site binding competition analysis) GraphPad Prism5 as a measure of receptor affinity.
Membranes were prepared in the following way; the cells were rinsed with PBS and incubated with Versene for approximately 5 min before harvesting. The cells were flushed with PBS and the cell-suspension was centrifuged for 5 min at 1000 rpm. Cells were homogenized (Ultrathurrax) in a buffer containing 20 mM Na-HEPES and 10 mM EDTA (pH 7.4) and centrifuged at 20.000 rpm for 15 min. The resulting pellet was resuspended, homogenized and centrifuged (20.000 rpm, 15 min) in a buffer containing 20 mM Na-HEPES and 0.1 mM EDTA (pH 7.4, buffer 2). The resulting pellet was resuspended in buffer 2 and protein concentration was measured (BCA protein Assay, Pierce). The homogenate was kept cold during the whole procedure. The membranes were kept at −80° C. until use. Assay was performed in a 384 well Optiplate (PerkinElmer) in a total volume of 40 ul. Membranes were mixed with SPA beads.

Ratio hCT/hAmylin binding	Binder
65.3	B1
26.5	{C20 diacid-γGlu}-GRCNTATCATQRLAAFLRHSSPNFGAIPSSTNVGPNTY-NH2 (disulfide 3-8)
36.2	B2
68.6	B3

These binders were tested against T1, human calcitonin receptor (assay: SPA competition against 125I-calcitonin, membranes of BHK cells with human calcitonin receptor (Assay VII)).
Procedure: Membranes were prepared in the following way; the cells were rinsed with PBS and incubated with Versene for approximately 5 min before harvesting. The cells were flushed with PBS and the cell-suspension was centrifuged for 5 min at 1000 rpm. Cells were homogenized (Ultrathurrax) in a buffer containing 20 mM Na-HEPES and 10 mM EDTA (pH 7.4) and centrifuged at 20.000 rpm for 15 min. The resulting pellet was resuspended, homogenized and centrifuged (20.000 rpm, 15 min) in a buffer containing 20 mM Na-HEPES and 0.1 mM EDTA (pH 7.4, buffer 2). The resulting pellet was resuspended in buffer 2 and protein concentration was measured (BCA protein Assay, Pierce). The homogenate was kept cold during the whole procedure. The membranes were kept at −80° C. until use. Assay was performed in a 384 well Optiplate (PerkinElmer) in a total volume of 40 ul. Membranes were mixed with SPA beads. Final concentration of membranes 35 ng/μL final and Final concentration of SPA beads was 0.05 mg/well. Test-compounds were dissolved in DMSO and further diluted in assay buffer (50 mM Hepes, pH 7.4, 1 mM CaCl2, 5 mM MgCl₂, 0.1% OA and 0.02% Tween20). […] The final mixture was incubated for 120 min with shaking at 400 rpm at 25° C. prior to centrifugation (1500 rpm, 10 min). Samples were analyzed on TopCounter™ (Packard). The […] was calculated using (one site binding competition analysis) GraphPad Prism5 as a measure of receptor affinity.

IC50	Binder
66.3 nM	B1
3 nM	{C20 diacid-γGlu}-GRCNTATCATQRLAAFLRHSSPNFGAIPSSTNVGPNTY-NH2 (disulfide 3-8)
7.87 nM	B2
29.2 nM	B3
112 nM	B4
